Data as given in the supplement of paper PMC12338614.
± gives the uncertainty stated by the source.

B1: library; numbered along this chain (parent)
chain: MEVVDPQQLGMFTEGELMSVGMDTFIHRIDSTEVIYQPRRKRAKLIGKYLMGDLLGEGSYGKVKEVLDSETLCRRAVKILKKKKLRRIPNGEANVKKEIQLLRRLRHKNVIQLVDVLYNEEKQKMYMVMEYCVCGMQEMLDSVPEKRFPVCQAHGYFCQLIDGLEYLHSQGIVHKDIKPGNLLLTTGGTLKISDLGVAEALHPFAADDTCRTSQGSPAFQPPEIANGLDTFSGFKVDIWSAGVTLYNITTGLYPFEGDNIYKLFENIGKGSYAIPGDCGPPLSDLLKGMLEYEPAKRFSIRQIRQHSWFRKKHPPAEAPVPIPPSPDTKDRWRSMTVVPYLEDLHGADEDEDLFDIEDDIIYTQDFTVPGQVPEEEASHNGQRRGLPKAVCMNGTEAAQLSTKSRAEGRAPNPARKACSASSKIRRLSACKQQ

Variants of: B1
Experiment: STK11 functional score (HeLa growth suppression), rescaled enrichment; synonymous median = 1, nonsense median = 0 (normalised score)
Conditions: with HeLa; variant type: missense
Summary of the method: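 The values are functional scores: wild-type-corrected log ratios of post- versus pre-selection abundance, rescaled to synonymous and nonsense medians, merged over codons and replicate transfections, and carrying bootstrapped error. They derive from codon-randomised (POPCode), codon-optimised STK11 libraries that Bxb1 integrated at an AAVS1 landing pad in HeLa, with three transfections for each of three regions. Sequencing of tiled gDNA amplicons ran on NextSeq, at ~2 million reads per tile.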

S216R and D176K are within error of each other in STK11 functional score: -0.166 ± 0.096 for the first, -0.194 ± 0.099 for the second.

First: L67V
Second: C158M
The STK11 functional score of the first is higher: 0.884 ± 0.11 for the first, -0.0261 ± 0.52 for the second.

Y60W and K388D are within error of each other in STK11 functional score: 1.58 ± 0.15 for the first, 1.31 ± 0.46 for the second.

G187W and F298A are within error of each other in STK11 functional score: 1.65 ± 0.13 for the first, 1.55 ± 0.15 for the second.

K84N and P369Q are within error of each other in STK11 functional score: 0.967 ± 0.3 for the first, 1.43 ± 0.23 for the second.

P369F and E357A are within error of each other in STK11 functional score: 1.26 ± 0.39 for the first, 1.12 ± 0.49 for the second.

Compared with T250F, G251P is lower in STK11 functional score: 1.14 ± 0.2 for the first, 0.0226 ± 0.16 for the second.

First: E138S
Second: I356W
The STK11 functional score of the first is lower: 1.26 ± 0.12 for the first, 1.66 ± 0.25 for the second.

Compared with P324K, T249V is higher in STK11 functional score: 0.708 ± 0.7 for the first, 1.56 ± 0.1 for the second.

Going from K416I to G163T, the STK11 functional score falls from 1.55 ± 0.19 to 0.008 ± 0.28.

Compared with E165W, K97N is higher in STK11 functional score: 0.516 ± 0.11 for the first, 1.21 ± 0.42 for the second.

First: L55W
Second: G180C
The STK11 functional score of the first is lower: 0.491 ± 0.13 for the first, 1.09 ± 0.31 for the second.

Going from D30Y to P387F, the STK11 functional score rises from -0.0227 ± 0.33 to 1.14 ± 0.64.

D348A and R211H are within error of each other in STK11 functional score: 1.54 ± 0.24 for the first, 1.32 ± 0.11 for the second.

Compared with K416C, L55A is lower in STK11 functional score: 1.14 ± 0.2 for the first, 0.122 ± 0.29 for the second.

H174I and V77R are within error of each other in STK11 functional score: 0.662 ± 0.19 for the first, 0.469 ± 0.17 for the second.

D284H and D5H are within error of each other in STK11 functional score: 1.14 ± 0.31 for the first, 1.13 ± 0.53 for the second.

P339A and K312E are within error of each other in STK11 functional score: 1 ± 0.56 for the first, 0.874 ± 0.5 for the second.

A318P and E376T are within error of each other in STK11 functional score: 1.59 ± 0.26 for the first, 1.55 ± 0.26 for the second.

Going from L190D to N412K, the STK11 functional score rises from -0.215 ± 0.095 to 0.831 ± 0.33.

Compared with R86T, T249L is lower in STK11 functional score: 1.69 ± 0.18 for the first, 1.08 ± 0.3 for the second.

First: N259W
Second: N393C
The STK11 functional score of the first is lower: 0.92 ± 0.36 for the first, 1.54 ± 0.18 for the second.

A397R and E14Y are within error of each other in STK11 functional score: 1.46 ± 0.33 for the first, 1.34 ± 0.49 for the second.

P413K and S169H are within error of each other in STK11 functional score: 1.55 ± 0.14 for the first, 1.43 ± 0.33 for the second.

First: P387N
Second: L282V
The STK11 functional score of the first is higher: 1.63 ± 0.24 for the first, 0.86 ± 0.23 for the second.

S283E and R28A are within error of each other in STK11 functional score: 0.826 ± 0.5 for the first, 1.52 ± 0.34 for the second.

D53G and N119Y are within error of each other in STK11 functional score: 0.726 ± 0.14 for the first, 1.12 ± 0.39 for the second.

P221L and R297T are within error of each other in STK11 functional score: 0.159 ± 0.17 for the first, -0.0209 ± 0.12 for the second.

R426I and R409V are within error of each other in STK11 functional score: 1.15 ± 0.49 for the first, 1.22 ± 0.21 for the second.

Going from G180Q to R42T, the STK11 functional score falls from 1.64 ± 0.19 to 0.779 ± 0.39.

S334D and K312T are within error of each other in STK11 functional score: 1.45 ± 0.13 for the first, 1.5 ± 0.27 for the second.

First: M51A
Second: V110D
The STK11 functional score of the first is higher: 1.45 ± 0.6 for the first, 0.338 ± 0.084 for the second.

I26M and V3S are within error of each other in STK11 functional score: 1.63 ± 0.33 for the first, 1.35 ± 0.17 for the second.

Compared with E57I, T395C is higher in STK11 functional score: 1.15 ± 0.09 for the first, 1.61 ± 0.23 for the second.

D30G and Q214E are within error of each other in STK11 functional score: 1.52 ± 0.3 for the first, 1.36 ± 0.5 for the second.

Compared with K262D, L245I is lower in STK11 functional score: 1.38 ± 0.2 for the first, 0.581 ± 0.1 for the second.

T209H and E317R are within error of each other in STK11 functional score: 1.34 ± 0.18 for the first, 1.58 ± 0.22 for the second.

T230C and Y131A are within error of each other in STK11 functional score: 1.19 ± 0.34 for the first, 0.676 ± 0.19 for the second.

Compared with M127L, L183H is higher in STK11 functional score: 0.382 ± 0.08 for the first, 1.43 ± 0.24 for the second.

A43I and H345P are within error of each other in STK11 functional score: 1.18 ± 0.48 for the first, 1.29 ± 0.27 for the second.

First: Y118S
Second: M335P
The STK11 functional score of the first is lower: 0.99 ± 0.1 for the first, 1.5 ± 0.2 for the second.

Compared with R28S, L427C is lower in STK11 functional score: 1.59 ± 0.13 for the first, 0.695 ± 0.25 for the second.

G276D and Y246Q are within error of each other in STK11 functional score: 1.33 ± 0.75 for the first, 1.11 ± 0.17 for the second.

G180V and I322D are within error of each other in STK11 functional score: 0.816 ± 0.089 for the first, 1.18 ± 0.52 for the second.

I224W and A93L are within error of each other in STK11 functional score: 1.3 ± 0.41 for the first, 1.12 ± 0.26 for the second.

L45C and R383D are within error of each other in STK11 functional score: 1.08 ± 0.4 for the first, 1.49 ± 0.32 for the second.

First: T32K
Second: K262G
The STK11 functional score of the first is lower: 0.829 ± 0.21 for the first, 1.35 ± 0.21 for the second.

Going from K146V to S232D, the STK11 functional score rises from 0.152 ± 0.098 to 1.14 ± 0.3.

R75F and P319F are within error of each other in STK11 functional score: 1.08 ± 0.19 for the first, 1.47 ± 0.26 for the second.

S19K and F234C are within error of each other in STK11 functional score: 1.53 ± 0.39 for the first, 1.05 ± 0.39 for the second.

T230P and A205L are within error of each other in STK11 functional score: 1.1 ± 0.17 for the first, 0.703 ± 0.24 for the second.

Compared with P217C, K83A is higher in STK11 functional score: 0.451 ± 0.36 for the first, 1.58 ± 0.36 for the second.

Compared with A316I, S325W is lower in STK11 functional score: 1.32 ± 0.3 for the first, 0.629 ± 0.13 for the second.

First: A414C
Second: V110R
The STK11 functional score of the first is higher: 1.59 ± 0.29 for the first, -0.0313 ± 0.081 for the second.

Going from G180P to N119P, the STK11 functional score rises from 0.814 ± 0.13 to 1.37 ± 0.29.

Going from R147D to N94P, the STK11 functional score rises from -0.33 ± 0.084 to 1.21 ± 0.64.

N393D and Q302K are within error of each other in STK11 functional score: 1.07 ± 0.26 for the first, 0.605 ± 0.3 for the second.

Going from E65R to Y118N, the STK11 functional score falls from 0.846 ± 0.099 to 0.286 ± 0.15.

Going from K235C to L113R, the STK11 functional score falls from 1.4 ± 0.27 to 0.684 ± 0.14.

P321M and N380M are within error of each other in STK11 functional score: 1.61 ± 0.27 for the first, 1.55 ± 0.12 for the second.

P221G and C210A are within error of each other in STK11 functional score: 1.03 ± 0.14 for the first, 1.33 ± 0.73 for the second.

Going from M335T to I177R, the STK11 functional score falls from 1.46 ± 0.19 to -0.0129 ± 0.087.

P387H and P387G are within error of each other in STK11 functional score: 1.45 ± 0.26 for the first, 1.58 ± 0.2 for the second.

First: G215M
Second: S422K
The STK11 functional score of the first is lower: 0.509 ± 0.12 for the first, 1.53 ± 0.12 for the second.

First: E165L
Second: I300P
The STK11 functional score of the first is lower: 0.448 ± 0.22 for the first, 1.42 ± 0.13 for the second.

First: Y340L
Second: A43G
The STK11 functional score of the first is higher: 1.59 ± 0.16 for the first, 0.859 ± 0.32 for the second.

D208I and K41W are within error of each other in STK11 functional score: 1.31 ± 0.36 for the first, 1.49 ± 0.17 for the second.

Going from T186M to I79Y, the STK11 functional score falls from 0.369 ± 0.12 to -0.0325 ± 0.073.

L341T and V372T are within error of each other in STK11 functional score: 1.29 ± 0.32 for the first, 1.5 ± 0.21 for the second.

P387M and A398I are within error of each other in STK11 functional score: 1.44 ± 0.11 for the first, 1.13 ± 0.64 for the second.

M129T and V66G are within error of each other in STK11 functional score: 0.97 ± 0.14 for the first, 0.814 ± 0.17 for the second.

First: T328S
Second: A206V
The STK11 functional score of the first is higher: 1.39 ± 0.18 for the first, 0.497 ± 0.082 for the second.

P324D and E374F are within error of each other in STK11 functional score: 1.57 ± 0.18 for the first, 1.33 ± 0.3 for the second.

First: S216L
Second: L140R
The STK11 functional score of the first is lower: 0.0797 ± 0.09 for the first, 0.437 ± 0.11 for the second.

V34C and S213L are within error of each other in STK11 functional score: 0.884 ± 0.4 for the first, 1.17 ± 0.17 for the second.

T32P and E317H are within error of each other in STK11 functional score: 1.48 ± 0.37 for the first, 1.25 ± 0.28 for the second.

R211F and T363D are within error of each other in STK11 functional score: 1.61 ± 0.33 for the first, 1.45 ± 0.16 for the second.

First: P149C
Second: D355S
The STK11 functional score of the first is lower: 0.957 ± 0.33 for the first, 1.48 ± 0.18 for the second.

A205F and E376P are within error of each other in STK11 functional score: 1.35 ± 0.2 for the first, 1.31 ± 0.15 for the second.

First: L167W
Second: Q371G
The STK11 functional score of the first is lower: -0.183 ± 0.049 for the first, 1.03 ± 0.36 for the second.

L113E and A398N are within error of each other in STK11 functional score: 1.13 ± 0.53 for the first, 1.15 ± 0.19 for the second.

S213T and F264V are within error of each other in STK11 functional score: 1.05 ± 0.33 for the first, 0.678 ± 0.21 for the second.

L50C and E375S are within error of each other in STK11 functional score: 1.41 ± 0.2 for the first, 1.39 ± 0.21 for the second.

Work on P319H yielded an STK11 functional score of 1.16 ± 0.43.
